These results are taken from patent US20230391876A1 (HANALL BIOPHARMA, published 2023).

Residue numbers refer to the chain shown, from its start. Names and notes keep the numbering of the source.

In test [1] the target is T1, hFcRn on hFcRn-expressing HEK293 cells (human, UniProt P55899 24-365; P61769 21-119).
T1 construct: whole, on cells; also called hFcRn HEK293
Description: FACS on hFcRn HEK293 cells, 10 nM antibody, pH 6.0.
Description: (§1) The analysis of hFcRn binding using FACS was carried out under two conditions of pH 6.0 and pH 7.4. hFcRn-expressing 1TEK293 (hFcRn HEK293) cells were diluted with the reaction buffer (0.0500 BSA in PBS, pH 6.0 or pH 7.4) and prepared in duplicate in a 96 well plate at 1×10⁵ cells for each sample. In addition, each antibody sample was diluted with the reaction buffer to 10 nM, and then put into a 96 well plate, and incubated at 4° C. for 90 minutes. Thereafter, the plate was centrifuged to remove the supernatant, and then Alexa488-goat anti-hIgG Ab (1:200) was added thereto, and again incubated at 4° C. for 90 minutes. After the reaction was completed, it was centrifuged to remove the supernatant, and 200 μL of the reaction buffer was added to resuspend the cell pellet, and then the MFI value was measured in a FACS instrument.

Test [2] addresses T1, hFcRn on hFcRn-expressing HEK293 cells. The test is described as follows: FACS on hFcRn HEK293 cells, 10 nM antibody, pH 7.4, high concentration sample.
Description: as §1
Test [3] shares this target. The test is described as follows: FACS on hFcRn HEK293 cells, pH 6.0; head prints 'FACS binding (EC50, nM)', taken as blocking of competitor Alexa488-hIgG1 (Example 4.5).
Description: (§2) 1×10⁷ hFcRn HEK293 cells were seeded into a T75 flask and cultured for 24 hours. After culturing, the cells were removed and placed in a 96 well plate at 1×10⁵ cells for each sample in duplicate. […] After the reaction was completed, it was centrifuged to remove the supernatant. 200 μL of the reaction buffer was added to resuspend the cell pellet, and then the MFI value was measured in a FACS instrument.
For test [4], the target named is T2, shFcRn (soluble human FcRn) (human, UniProt P55899 24-297; P61769 21-119).
T2 construct: extracellular domain; Printed only as 'soluble human FcRn'; also called hFcRn (immobilized on a chip)
T2 sequence (P55899 24-297 limits assumed, chain 1 of 2): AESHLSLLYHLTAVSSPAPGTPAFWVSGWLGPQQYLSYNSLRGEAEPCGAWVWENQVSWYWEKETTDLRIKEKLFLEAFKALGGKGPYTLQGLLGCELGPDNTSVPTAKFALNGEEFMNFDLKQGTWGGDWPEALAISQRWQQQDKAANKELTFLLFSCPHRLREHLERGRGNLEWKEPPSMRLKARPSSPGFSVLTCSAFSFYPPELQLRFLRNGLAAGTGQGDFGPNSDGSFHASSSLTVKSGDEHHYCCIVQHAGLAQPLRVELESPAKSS
T2 sequence (P61769 21-119 limits assumed, chain 2 of 2): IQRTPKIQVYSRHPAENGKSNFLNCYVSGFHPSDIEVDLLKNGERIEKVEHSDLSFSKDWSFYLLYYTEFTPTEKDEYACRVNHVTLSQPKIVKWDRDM
The test is described as follows: SPR, hFcRn immobilized on chip, pH 6.0.
Description: (§3) Kinetic analysis was performed using a 1:1 Langmuir binding model, and the average KD value was obtained by repeating the analysis 6 times in each condition of pH 6.0 and pH 7.4.
(§4) Chip activation was performed under EDAC/NHS 0.5×, 30 μL/min, and 300 sec conditions. Thereafter, shFcRn was prepared at 2 μg/mL, 250 μL using an acetate buffer (pH 5.5), and immobilization was performed while flowing at 30 μL/min. The reaction was stopped when the immobilization level corresponded to 200 RU to 300 RU. Thereafter, deactivation was performed using ethanolamine at 30 μL/min, 300 sec. […] Sample dilution was performed using 1×PBST (pH 7.4) or 1×PBST (pH 6.0) buffer depending on the analysis pH. In the sample analysis conditions, association was carried out by reaction at 50 μL/min, 200 sec, and dissociation was carried out by reaction at 50 μL/min, 600 sec. Thereafter, reaction was carried out using a glycine buffer (pH 2.0) at 100 μL/min, 18 sec to perform regeneration. For kinetic analysis, samples were prepared and reacted once in three cells to which shFcRn was immobilized. Then three kinetic values were obtained, and then an average KD value was measured. When analyzing reaction signals, interspot-referencing and signals in which only buffer was analyzed were used for a double-referencing.

In test [5] the target is T1, hFcRn on hFcRn-expressing HEK293 cells. Description: FACS on hFcRn HEK293 cells, 10 nM antibody, pH 7.4.
Description: as §1
In test [6] the target is T2, shFcRn (soluble human FcRn). The test is described as follows: SPR, hFcRn immobilized on chip, pH 7.4.
Description: as §3, §4
Test [7] concerns the target T1, hFcRn on hFcRn-expressing HEK293 cells. Description: FACS on hFcRn HEK293 cells, 10 nM antibody, pH 6.0, high concentration sample.
Description: as §1
Test [8] has the same target. The test is described as follows: FACS on hFcRn HEK293 cells, pH 6.0, high concentration sample; head prints 'FACS binding (EC50, nM)', taken as blocking of competitor Alexa488-hIgG1 (Example 5.5).
Description: as §2
The evaluation of hFcRn blocking was performed at 0.1 nM, 1 nM, 10 nM, and 100 nM using FACS.
Test [9] deals with T2, shFcRn (soluble human FcRn). Description: SPR, shFcRn immobilized on chip, antibody as analyte, pH 7.4.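 Also: kinetics fitted with a 1:1 Langmuir model, association 200 s and dissociation 600 s in PBST, double-referenced against buffer-only and interspot signals, values averaged over repeated runs.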
Description: as §3, §4
The target is the same in test [10]. The test is described as follows: SPR, shFcRn immobilized on chip, antibody as analyte, pH 6.0.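 Also: kinetics fitted with a 1:1 Langmuir model, association 200 s and dissociation 600 s, samples diluted in PBST, double-referenced signals, values averaged across three shFcRn-coated cells.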
Description: as §3, §4

T1 sequence (P55899 24-365 limits assumed, chain 1 of 2): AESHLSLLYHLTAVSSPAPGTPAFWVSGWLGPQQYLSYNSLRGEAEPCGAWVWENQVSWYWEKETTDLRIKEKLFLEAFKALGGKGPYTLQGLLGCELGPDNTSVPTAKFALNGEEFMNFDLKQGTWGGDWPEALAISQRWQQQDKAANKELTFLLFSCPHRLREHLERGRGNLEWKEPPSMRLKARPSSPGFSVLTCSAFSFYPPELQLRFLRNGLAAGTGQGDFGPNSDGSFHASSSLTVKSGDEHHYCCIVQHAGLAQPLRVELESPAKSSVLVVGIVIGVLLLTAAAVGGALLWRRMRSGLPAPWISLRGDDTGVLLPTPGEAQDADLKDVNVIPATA
T1 sequence (P61769 21-119 limits assumed, chain 2 of 2): as the sequence (P61769 21-119 limits assumed, chain 2 of 2) above

B1: HL161AN variant No. 1 (LC:N25S, HC:C32S) (antibody, V domains shown)
VL: SYVLTQPPSVSVAPGQTARITCGGSNIGSTSVHWYQQKPGQAPVLVVHDDSDRPSGIPERFSGSNSGNTATLTISRVEAGDEADYYCQVRDSSSDHVIFGGGTKLTVLGQPKAAPSVTL
VH: EVQLLESGGGLVQPGGSLRLSCAASEFTFGSSVMTWVRQAPGKGLEWVSVISGSGGSTYYADSVKGRFTISRDNSKNTLYLQMNSLRAEDTAVYYCAKTPWWLRSPFFDYWGQGTLVTVSS
notes: also called HL161ANS; #1 (HL161ANS)
Take B1: the MFI in test [1] was 2720 MFI; in test [2], 6730 MFI; in test [5], 6460 MFI; in [7], 3270 MFI. Besides, the EC50 in test [3] is 1.44 nM; in [8], 0.69 nM. Besides, the Kd in test [4] came to 0.12 nM; in test [6] it was 0.12 nM; in test [9] it was 0.122 nM; in test [10] it was 0.129 nM. Besides, the koff in [9] was determined as 0.000392 s⁻¹; in [10], 0.000463 s⁻¹. In addition, the kon was 3.22e+06 M⁻¹ s⁻¹ in test [9] and 3.58e+06 M⁻¹ s⁻¹ in test [10].

B2: HL161AN variant No. 11 (LC:N25S, HC:C32Y Q82E) (antibody, V domains shown)
VL: B1 VL
VH: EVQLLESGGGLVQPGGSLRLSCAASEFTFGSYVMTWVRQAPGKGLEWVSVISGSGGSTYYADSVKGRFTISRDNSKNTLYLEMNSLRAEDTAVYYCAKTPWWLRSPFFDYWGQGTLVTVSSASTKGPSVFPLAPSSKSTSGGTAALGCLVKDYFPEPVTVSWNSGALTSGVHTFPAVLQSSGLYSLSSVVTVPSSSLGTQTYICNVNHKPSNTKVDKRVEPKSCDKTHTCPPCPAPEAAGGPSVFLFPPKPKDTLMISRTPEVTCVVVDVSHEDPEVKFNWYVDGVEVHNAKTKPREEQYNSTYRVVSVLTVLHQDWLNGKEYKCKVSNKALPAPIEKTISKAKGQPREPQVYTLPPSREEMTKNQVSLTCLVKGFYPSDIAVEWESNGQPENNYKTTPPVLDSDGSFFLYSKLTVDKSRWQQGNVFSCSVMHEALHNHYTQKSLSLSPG
notes: also called HL161ANSYE; copies: 2 + 2
In the case of B2, the MFI in [1] was 2580 MFI; in test [2], 6570 MFI; in test [5] it was 6320 MFI; in test [7], 3450 MFI. Further, the EC50 in test [3] was determined as 1.36 nM; in [8], 0.62 nM. Moreover, the Kd turned out to be 0.14 nM in [4], 0.28 nM in test [6], 0.262 nM in test [9] and 0.19 nM in test [10]. Besides, the dissociation rate constant (koff) in [9] was 0.000487 s⁻¹; in test [10], 0.000486 s⁻¹. The values for the on-rate (kon) in test [9] and in test [10] were 1.86e+06 M⁻¹ s⁻¹ and 2.56e+06 M⁻¹ s⁻¹, respectively.

B3: HL161AN variant No. 19 (LC:N25Q, HC:C32S Q82E) (antibody, V domains shown)
VL: B1 VL with S25Q
VH: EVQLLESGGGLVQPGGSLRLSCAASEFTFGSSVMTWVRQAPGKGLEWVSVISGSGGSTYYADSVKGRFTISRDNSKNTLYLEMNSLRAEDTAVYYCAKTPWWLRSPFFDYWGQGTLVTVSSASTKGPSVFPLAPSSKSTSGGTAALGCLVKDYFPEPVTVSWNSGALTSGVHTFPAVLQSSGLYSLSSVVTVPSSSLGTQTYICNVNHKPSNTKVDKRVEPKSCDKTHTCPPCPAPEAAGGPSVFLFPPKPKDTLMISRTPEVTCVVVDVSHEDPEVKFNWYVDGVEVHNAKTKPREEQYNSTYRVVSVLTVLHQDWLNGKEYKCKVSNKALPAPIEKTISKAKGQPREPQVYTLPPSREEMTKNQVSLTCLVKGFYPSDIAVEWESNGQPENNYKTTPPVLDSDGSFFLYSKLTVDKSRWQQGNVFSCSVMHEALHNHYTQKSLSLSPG
notes: also called HL161ANQE; copies: 2 + 2
Consider B3, for which the MFI in [1] is 2640 MFI; in test [2] it was 7910 MFI; in test [5] it was 6470 MFI; in test [7], 3240 MFI. The figures for the concentration for a half-maximal effect (EC50) in test [3] and in test [8] were 1.14 nM and 0.62 nM, respectively. For the same molecule, the Kd in test [4] amounted to 0.32 nM; in test [6] it was 0.36 nM; in test [10] it was 0.275 nM. The koff in test [10] was 0.000575 s⁻¹. The kon in [10] was 2.09e+06 M⁻¹ s⁻¹.

B4: HL161AN variant No. 8 (LC:N25S, HC:C32S Q82E) (antibody, V domains shown)
VL: B1 VL
VH: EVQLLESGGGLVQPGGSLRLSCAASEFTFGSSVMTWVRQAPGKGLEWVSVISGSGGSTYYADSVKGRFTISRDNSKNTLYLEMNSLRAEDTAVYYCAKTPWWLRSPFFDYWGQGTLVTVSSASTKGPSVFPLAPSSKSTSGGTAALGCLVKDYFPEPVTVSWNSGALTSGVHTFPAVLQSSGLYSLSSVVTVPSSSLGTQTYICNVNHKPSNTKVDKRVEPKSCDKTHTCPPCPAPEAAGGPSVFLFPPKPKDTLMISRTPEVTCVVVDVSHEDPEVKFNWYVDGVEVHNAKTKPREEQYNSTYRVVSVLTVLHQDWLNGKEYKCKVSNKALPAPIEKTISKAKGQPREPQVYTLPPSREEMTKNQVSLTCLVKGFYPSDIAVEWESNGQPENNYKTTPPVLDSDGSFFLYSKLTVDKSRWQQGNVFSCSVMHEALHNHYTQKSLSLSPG
notes: also called HL161ANSE; copies: 2 + 2
For B4, the MFI in test [1] worked out at 2830 MFI; in test [2] it was 7060 MFI; in test [5], 6760 MFI; in [7], 3130 MFI. Besides, the concentration giving a half-maximal response (EC50) in test [3] worked out at 1.47 nM; in [8] it was 0.6 nM. For the same molecule, the Kd in [4] was 0.14 nM; in test [6], 0.28 nM; in [9] it was 0.218 nM; in test [10] it was 0.158 nM. The koff in [9] turned out to be 0.000496 s⁻¹; in test [10], 0.000477 s⁻¹. For the same molecule, the association rate constant (kon) stood at 2.27e+06 M⁻¹ s⁻¹ in [9] and 3.02e+06 M⁻¹ s⁻¹ in [10].

B5: HL161AN variant No. 12 (LC:N25Q, HC:C32S) (antibody, V domains shown)
VL: B1 VL with S25Q
VH: B1 VH
notes: also called HL161ANQ; #12 (HL161ANQ)
For B5, the MFI was 2770 MFI in [1], 7700 MFI in test [2], 6940 MFI in test [5] and 3390 MFI in test [7]. For the same molecule, the results for the EC50 in test [3] and in test [8] were 1.65 nM and 0.69 nM, respectively. Moreover, the dissociation constant (Kd) turned out to be 0.18 nM in test [4], 0.21 nM in test [6], 0.209 nM in test [9] and 0.181 nM in [10]. The koff in test [9] is 0.000499 s⁻¹; in [10], 0.000549 s⁻¹. The kon in [9] was determined as 2.38e+06 M⁻¹ s⁻¹; in [10], 3.02e+06 M⁻¹ s⁻¹.

B6: HL161AN variant No. 2 (LC:N25S, HC:C32Y) (antibody, V domains shown)
VL: B1 VL
VH: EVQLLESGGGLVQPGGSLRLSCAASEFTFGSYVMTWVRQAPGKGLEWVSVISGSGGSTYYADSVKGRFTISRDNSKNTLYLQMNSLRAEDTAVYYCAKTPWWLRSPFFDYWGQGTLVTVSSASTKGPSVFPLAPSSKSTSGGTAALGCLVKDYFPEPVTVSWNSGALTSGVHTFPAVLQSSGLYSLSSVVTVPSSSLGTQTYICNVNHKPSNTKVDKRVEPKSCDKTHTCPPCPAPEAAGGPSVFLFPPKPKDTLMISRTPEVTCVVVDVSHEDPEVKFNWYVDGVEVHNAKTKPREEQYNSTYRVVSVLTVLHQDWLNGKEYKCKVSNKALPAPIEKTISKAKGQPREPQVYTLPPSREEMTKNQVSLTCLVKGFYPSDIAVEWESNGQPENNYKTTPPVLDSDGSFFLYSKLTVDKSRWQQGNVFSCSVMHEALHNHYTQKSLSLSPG
notes: also called HL161ANSY; copies: 2 + 2
Consider B6, for which the MFI in test [1] is 2500 MFI; in test [2], 7000 MFI; in test [5], 6200 MFI; in [7], 3410 MFI. Moreover, the values for the EC50 in [3] and in test [8] were 1.27 nM and 0.54 nM, respectively. For the same molecule, the Kd in [4] came out at 0.1 nM; in [6], 0.2 nM; in [9], 0.207 nM; in test [10], 0.149 nM. The koff in test [9] amounted to 0.000435 s⁻¹; in test [10], 0.000433 s⁻¹. The values for the kon in [9] and in test [10] were 2.1e+06 M⁻¹ s⁻¹ and 2.91e+06 M⁻¹ s⁻¹, respectively.

B7: HL161AN variant No. 13 (LC:N25Q, HC:C32Y) (antibody, V domains shown)
VL: B1 VL with S25Q
VH: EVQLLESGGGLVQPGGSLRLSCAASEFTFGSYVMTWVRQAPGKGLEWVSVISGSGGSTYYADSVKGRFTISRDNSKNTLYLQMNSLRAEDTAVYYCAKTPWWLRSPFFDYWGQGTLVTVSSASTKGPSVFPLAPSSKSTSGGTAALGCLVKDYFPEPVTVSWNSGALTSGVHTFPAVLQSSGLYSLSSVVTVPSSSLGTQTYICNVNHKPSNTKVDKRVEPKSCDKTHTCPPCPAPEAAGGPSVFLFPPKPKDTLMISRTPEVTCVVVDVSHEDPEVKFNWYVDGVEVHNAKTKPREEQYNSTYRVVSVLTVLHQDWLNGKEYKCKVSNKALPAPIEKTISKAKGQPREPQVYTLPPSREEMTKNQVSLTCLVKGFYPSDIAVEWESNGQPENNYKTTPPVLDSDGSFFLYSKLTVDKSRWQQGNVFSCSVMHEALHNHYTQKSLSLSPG
notes: also called HL161ANQY; copies: 2 + 2
B7: the MFI was 2600 MFI in test [1], 7940 MFI in test [2], 6730 MFI in test [5] and 3330 MFI in test [7]. The results for the half-maximal effective concentration (EC50) in test [3] and in [8] were 1.38 nM and 0.66 nM, respectively. For the same molecule, the Kd amounted to 0.21 nM in test [4], 0.32 nM in test [6], 0.236 nM in test [9] and 0.2 nM in [10]. Besides, the figures for the koff in test [9] and in [10] were 0.000444 s⁻¹ and 0.000556 s⁻¹, respectively. Besides, the kon was 1.88e+06 M⁻¹ s⁻¹ in [9] and 2.77e+06 M⁻¹ s⁻¹ in test [10].

B8: HL161AN variant No. 22 (LC:N25Q, HC:C32Y Q82E) (antibody, V domains shown)
VL: B1 VL with S25Q
VH: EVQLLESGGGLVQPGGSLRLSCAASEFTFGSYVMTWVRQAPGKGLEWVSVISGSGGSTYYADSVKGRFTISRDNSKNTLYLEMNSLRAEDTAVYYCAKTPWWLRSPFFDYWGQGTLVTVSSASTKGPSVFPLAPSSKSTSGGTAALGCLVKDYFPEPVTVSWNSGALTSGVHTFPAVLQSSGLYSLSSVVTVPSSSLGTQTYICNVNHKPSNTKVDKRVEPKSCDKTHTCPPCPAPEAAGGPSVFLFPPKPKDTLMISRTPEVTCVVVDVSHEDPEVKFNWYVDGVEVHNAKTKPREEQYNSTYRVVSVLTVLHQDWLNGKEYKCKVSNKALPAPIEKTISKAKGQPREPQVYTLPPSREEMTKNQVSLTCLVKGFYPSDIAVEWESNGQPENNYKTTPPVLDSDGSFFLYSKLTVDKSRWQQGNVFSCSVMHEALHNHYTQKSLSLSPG
notes: also called HL161ANQYE; copies: 2 + 2
On to B8, for which the MFI worked out at 2390 MFI in test [1], 7080 MFI in [2], 5860 MFI in test [5] and 3020 MFI in [7]. The EC50 was 1.3 nM in [3] and 0.71 nM in test [8]. In addition, the Kd in test [4] was 0.21 nM; in test [6], 0.3 nM; in test [9], 0.381 nM; in [10], 0.264 nM. Also, the koff in test [9] worked out at 0.000647 s⁻¹; in test [10] it was 0.000522 s⁻¹. In addition, the figures for the kon in test [9] and in test [10] were 1.7e+06 M⁻¹ s⁻¹ and 1.98e+06 M⁻¹ s⁻¹, respectively.
